Key:
[1] = target: NRN1_(L.h.) variant E114Q (Latrodectus hesperus); assay: NMR 15N relaxation (T1, T2; rotational correlation time); 15N-labelled E114Q, 22 mM sodium phosphate pH 7.2 without salt, 10% D2O; molecular weight estimated from the rotational correlation time
[2] = target: NRN1_(L.h.) variant E114Q (Latrodectus hesperus); assay: SEC-MALS; Superdex 200 10/300 GL, 20 mM sodium phosphate pH 7.2 without NaCl, 71.2 μM protein injected; monomer to dimer
[3] = target: the molecule itself; assay: SEC-MALS; Superdex 200 10/300 GL, 20 mM sodium phosphate pH 6.0 without NaCl, 71.2 μM protein injected; monomer to dimer

## NRN1_(L.h.) variant E114Q (domain or fragment)
[1]
  stoichiometry N: 2
[2]
  stoichiometry N: 2

B1: amino-terminal domain of Latrodectus hesperus major ampullate spidroin 1, wildtype (domain or fragment)
chain: QANTPWSSKANADAFINSFISAASNTGSFSQDQMEDMSLIGNTLMAAMDNMGGRITPSKLQALDMAFASSVAEIAASEGGDLGVTTNAIADALTSAFYQTTGVVNSRFISEIRSLIGMFAQASANDVYASAGS
notes: non-repetitive amino-terminal domain (NRN1) of major ampullate spidroin 1 (MaSp1), Latrodectus hesperus; also called wtNRN1_(L.h.); NRN1_(L.h.); source: E. coli BL21 (DE3), purified (nickel-NTA, SEC)
[3]
  stoichiometry N: 2
